How the values were obtained:
[1] = system: Akt; experiment: Western blot of Akt phosphorylation in RT-HCEpiC; format: cell-based, human; conditions: 10 ng/mL for 10 minutes
Description: (§1) Human corneal epithelial cells (HCEpiC) were treated with 10% PEG-3350 in serum-free media over the course of 16 hours in an attempt to understand the molecular mechanisms behind the observed positive effect on corneal re-epithelization. Cell lysates were collected and assessed for protein activation by western blot using antibodies targeting key phosphorylation sites.
(§2) FIG. 11 is a graphical representation of peak phosphorylation time points for pAkt, pERK, and pEGFR. […] Cell lysates were collected and assessed for protein activation by western blot using antibodies targeting key phosphorylation sites. […] Ratio of phosphorylated protein to total, non-phosphorylated was quantified by densitometry.
(§3) RT-HCEpiC cell suspensions (2.5×10^5 cells/ml) were prepared in complete medium with 10% Fetal Bovine Serum (“FBS”) and added to each well of a 6-well plate, 2.5 mL suspension per well. […] Cell lysates were assayed for protein concentration and evaluated for Akt, ERK, EGFR, and PI3K activation by Western blot.
(§4) Culture medium was aspirated from each well and cells were washed with cold, non-sterile PBS twice. […] Cell lysates were assayed for protein concentration and analyzed by western blot. […]
(§5) Western Blot: Analysis of Western blot band density in captured and stored digital images was done using the Quantity One software on the VersaDod MP 4000. Density of bands was quantified. […]

[2] = system: PI3K; experiment: Western blot of PI3K phosphorylation in RT-HCEpiC; format: cell-based, human; conditions: 10 ng/mL for 10 minutes
Description: as §1
RT-HCEpiC cell suspensions (2.5×10^5 cells/ml) were prepared in complete medium with 10% Fetal Bovine Serum (“FBS”) and added to each well of a 6-well plate, 2.5 mL suspension per well. When cells reached confluence, they were serum starved overnight in basal DMEM/F12. Treatments were delivered in basal medium; treatments include control, 10 ng/mL HB-EGF (Heparin-bi-binding EGF-like growth factor) for 10 minutes; or 10% PEG-3350 for 10, 15, 20, 30 minutes, 1, 2, 4, 6, or 16 hours. Cell lysates were assayed for protein concentration and evaluated for Akt, ERK, EGFR, and PI3K activation by Western blot.
as §4, §5

[3] = system: Riken human corneal epithelial cell line (RT-HCEpiC); experiment: Monolayer scratch assay (corneal re-epithelization); format: cell-based; conditions: 10 ng/mL; 16 hours after wounding
Description: A single horizontal scratch was made to the HCEpiC monolayer. Cells were then incubated with PEG 3350 or HPMC 2910 in basal culture medium. Wound healing was calculated as the difference in the gap width between baseline measurements and after 16-hour incubation and is expressed as percentage gap closure. Bars represent the difference in the gap width between baseline measurements and after 16-hour incubation with treatment groups (n=3); lines on bars represent the standard error of the means. Raw data were analyzed with a one-way ANOVA followed by the Dunnett's Method test. * denotes statistical significance versus vehicle control; p<0.05.
We have developed an in vitro wound healing model using transformed human corneal epithelial cells insulted with a scratch to the monolayer and monitored for growth into the resulting cell-free gap. […]
Cells were examined and photographed after scratch and after 16 hours incubation with treatment to monitor closure of the cell-free gap using a light microscope. The percent closure was determined using the following equation. […]
Comparisons were made between treatment groups and the vehicle controls to determine the effect of the treatment on re-epithelization. […] All data was analyzed utilizing the statistical analysis software JMP (SAS Institute, Cary, N.C.).

[4] = system: EGFR; experiment: Western blot of EGFR phosphorylation in RT-HCEpiC; format: cell-based, human; conditions: 10 ng/mL for 10 minutes
Description: as §1, §2, §3, §4, §5

[5] = system: ERK; experiment: Western blot of ERK phosphorylation in RT-HCEpiC; format: cell-based, human; conditions: 10 ng/mL for 10 minutes
Description: as §1, §2, §3, §4, §5

B1: Heparin-binding EGF-like growth factor (protein, UniProt Q99075 63-148, looked up)
Heparin-binding EGF-like …: DLQEADLDLLRVTLSSKPQALATPNKEEHGKRKKKGKGLGKKRDPCLRKYKDFCIHGECKYVKELRAPSCICHPGYHGERCHGLSL
notes: growth factor used as positive assay control
phosphorylation of Akt [1]: substantially increased
pPI3K [2]: no effect
corneal re-epithelization (percent gap closure) versus vehicle control [3]: significantly increased
phosphorylation of EGFR [4]: substantially increased
phosphorylation of ERK [5]: substantially increased
